The results in this text go back to patent US20210087294A1 (University of Pennsylvania, published 2021).

In experiment [1] the target is T1, human fibroblast activation protein (FAP) (human, UniProt Q12884 1-760).
T1 construct: whole, on cells; also called human FAP; huFAP
T1 sequence (looked up): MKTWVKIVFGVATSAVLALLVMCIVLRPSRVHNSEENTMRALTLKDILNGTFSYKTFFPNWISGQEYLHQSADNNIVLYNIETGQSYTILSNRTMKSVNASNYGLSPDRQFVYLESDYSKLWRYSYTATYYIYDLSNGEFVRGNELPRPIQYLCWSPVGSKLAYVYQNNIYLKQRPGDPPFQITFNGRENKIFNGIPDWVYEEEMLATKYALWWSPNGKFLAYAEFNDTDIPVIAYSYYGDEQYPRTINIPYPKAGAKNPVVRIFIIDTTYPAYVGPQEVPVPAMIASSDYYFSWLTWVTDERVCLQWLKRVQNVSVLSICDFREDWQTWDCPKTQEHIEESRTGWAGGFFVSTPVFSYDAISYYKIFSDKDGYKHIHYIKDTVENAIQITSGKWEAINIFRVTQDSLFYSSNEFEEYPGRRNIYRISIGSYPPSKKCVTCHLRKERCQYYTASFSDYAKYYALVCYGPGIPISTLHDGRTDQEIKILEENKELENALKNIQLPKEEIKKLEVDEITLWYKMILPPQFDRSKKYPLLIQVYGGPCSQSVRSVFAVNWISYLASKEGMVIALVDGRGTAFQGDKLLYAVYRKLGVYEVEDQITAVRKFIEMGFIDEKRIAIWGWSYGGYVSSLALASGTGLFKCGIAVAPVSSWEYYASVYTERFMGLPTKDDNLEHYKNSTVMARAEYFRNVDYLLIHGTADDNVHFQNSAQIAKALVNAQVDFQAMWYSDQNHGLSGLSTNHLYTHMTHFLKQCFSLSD
The experiment is described as follows: flow cytometry on human primary fibroblasts and on BALB/c 3T3 cells expressing a human FAP transgene. An excerpt: (§1) On day 241, 2017 spleens were harvested, a single cell suspension prepared, and splenocytes fused with sp2/0 cells by the UPENN Hybridoma Core Facility. Hyridomas supernatants were initially screened by FACS on MC KOSA parental (FAP null) vs. canine FAP-transgene expressing MC KOSA.K9FAP using hybridoma supernatants as the primary antibodies and AF488 goat anti-mouseIgG as a secondary. Clone 4G5 identified as reactive to transduced cells but not parental cells and screened on additional cells to confirm reactivity with FAP expressing but not FAP-negative cells: Human primary fibroblasts, BALB/c 3T3 expressing murine or human FAP transgenes, canine primary fibroblasts, SK KOSA (FAP expressing), and BALB/c 3T3 (FAP negative) cells. 4G5 was then determined to be an IgG1k isotype antibody using (Thermo Fisher Rapid ELISA Mouse mAb Isotyping Kit #37503)
(§2) BALB/c 3T3 fibroblast cells transduced to express full-length canine FAP were then used to immunize 14 week old BALB/c FAP^{-/-} mice. All injections were given intraperitoneally and consisted of 1×10⁷ cells in 0.5 ml sterile PBS. The initial immunization was followed by six booster immunizations at regular intervals over the next eight months. At the conclusion of the study, spleens were harvested, and the resulting single-cell suspensions were used to generate hybridomas via fusion with sp2/0 cells. […]

Experiment [2] has as its target T2, murine fibroblast activation protein (FAP) (murine, UniProt P97321 1-761).
T2 construct: whole, on cells; also called mouse FAP; murine FAP
T2 sequence (looked up): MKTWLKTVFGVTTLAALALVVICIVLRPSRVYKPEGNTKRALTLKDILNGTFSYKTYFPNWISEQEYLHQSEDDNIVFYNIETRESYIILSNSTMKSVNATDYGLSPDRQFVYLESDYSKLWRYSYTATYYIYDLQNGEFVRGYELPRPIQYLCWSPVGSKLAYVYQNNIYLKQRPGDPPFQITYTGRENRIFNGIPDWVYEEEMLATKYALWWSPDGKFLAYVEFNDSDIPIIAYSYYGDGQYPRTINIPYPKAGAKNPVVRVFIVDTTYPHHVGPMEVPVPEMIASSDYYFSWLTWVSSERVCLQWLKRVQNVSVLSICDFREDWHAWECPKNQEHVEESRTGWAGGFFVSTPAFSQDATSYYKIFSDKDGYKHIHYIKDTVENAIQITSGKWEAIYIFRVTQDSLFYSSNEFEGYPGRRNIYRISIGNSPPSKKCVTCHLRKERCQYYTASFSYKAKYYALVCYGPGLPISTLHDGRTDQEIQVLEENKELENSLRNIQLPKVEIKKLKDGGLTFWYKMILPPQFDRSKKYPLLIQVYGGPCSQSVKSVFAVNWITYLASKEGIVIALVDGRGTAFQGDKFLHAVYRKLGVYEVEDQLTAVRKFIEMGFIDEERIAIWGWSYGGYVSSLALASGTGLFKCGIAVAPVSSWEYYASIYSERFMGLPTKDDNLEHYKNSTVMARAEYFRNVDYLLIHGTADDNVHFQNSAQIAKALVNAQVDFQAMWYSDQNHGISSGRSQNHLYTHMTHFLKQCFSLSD
The experiment is described as follows: flow cytometry on BALB/c 3T3 cells expressing a murine FAP transgene.
From the text: as §1, §2

B1: 4G5 anti-canine FAP antibody (antibody, V domains shown)
VH: QVQLQQPGAELVKPGASVKLSCKASGYTITSYSLHWVKQRPGQGLEWIGEINPANGDHNFSEKFEIKATLTVDSSSNTAFMQLSRLTSEDSAVYYCTRLDDSRFHWYFDVWGAGTTVTVSS
VL: QIVLTQSPALMSASPGEKVTMTCTASSSVSYMYWYQQKPRSSPKPWIFLTSNLASGVPARFSGRGSGTSFSLTISSMEAEDAATYYCQQWSGYPPITFGSGTKLEIK
notes: Mouse hybridoma monoclonal antibody, tested as hybridoma supernatant or immunoglobulin; also called clone 4G5; 4G5 immunoglobulin
As for B1, the binding result in experiment [1] and in experiment [2] was “binds” each time.
